Laboratory results reported in article PMC6625358 (Structure (London, England : 1993), 2017).
“And” between values parts separate entries of the source, which are not always exact repeats. Identical values can stand only once. Each block holds one binder with its values, some of them ahead of it.

B4: Nop58p_447 (truncated Nop58p, residues 1–447) (domain or fragment, Saccharomyces cerevisiae, UniProt Q12499 1-447, looked up)
chain: MAYVLTETSAGYALLKASDKKIYKSSSLIQDLDSSDKVLKEFKIAAFSKFNSAANALEEANSIIEGKVSSQLEKLLEEIKKDKKSTLIVSETKLANAINKLGLNFNVVSDAVTLDIYRAIKEYLPELLPGMSDNDLSKMSLGLAHSIGRHKLKFSADKVDVMIIQAIALLDDLDKELNTYAMRCKEWYGWHFPELAKIVTDSVAYARIILTMGIRSKASETDLSEILPEEIEERVKTAAEVSMGTEITQTDLDNINALAEQIVEFAAYREQLSNYLSARMKAIAPNLTQLVGELVGARLIAHSGSLISLAKSPASTIQILGAEKALFRALKTKHDTPKYGLLYHASLVGQATGKNKGKIARVLAAKAAVSLRYDALAEDRDDSGDIGLESRAKVENRLSQLEGRDLRTTPKVVREAKKVEMTEARAYNADADTAKAASDSESDSDDE
B6: Rvb1/2p complex (tag-free) (complex, Saccharomyces cerevisiae)
chain 1: MVAISEVKENPGVNSSNSGAVTRTAAHTHIKGLGLDESGVAKRVEGGFVGQIEAREACGVIVDLIKAKKMSGRAILLAGGPSTGKTALALAISQELGPKVPFCPLVGSELYSVEVKKTETLMENFRRAIGLRIKETKEVYEGEVTELTPEDAENPLGGYGKTISHVIVGLKSAKGTKTLRLDPTIYESIQREKVSIGDVIYIEANTGAVKRVGRSDAYATEFDLETEEYVPLPKGEVHKKKEIVQDVTLHDLDVANARPQGGQDVISMMGQLLKPKKTEITEKLRQEVNKVVAKYIDQGVAELIPGVLFIDEVNMLDIEIFTYLNKALESNIAPVVVLASNRGMTTVRGTEDVISPHGVPPDLIDRLLIVRTLPYDKDEIRTIIERRATVERLQVESSALDLLATMGTETSLRYALQLLAPCGILAQTSNRKEIVVNDVNEAKLLFLDAKRSTKILETSANYL
chain 2: MSIQTSDPNETSDLKSLSLIAAHSHITGLGLDENLQPRPTSEGMVGQLQARRAAGVILKMVQNGTIAGRAVLVAGPPSTGKTALAMGVSQSLGKDVPFTAIAGSEIFSLELSKTEALTQAFRKSIGIKIKEETELIEGEVVEIQIDRSITGGHKQGKLTIKTTDMETIYELGNKMIDGLTKEKVLAGDVISIDKASGKITKLGRSFARSRDYDAMGADTRFVQCPEGELQKRKTVVHTVSLHEIDVINSRTQGFLALFTGDTGEIRSEVRDQINTKVAEWKEEGKAEIVPGVLFIDEVHMLDIECFSFINRALEDEFAPIVMMATNRGVSKTRGTNYKSPHGLPLDLLDRSIIITTKSYNEQEIKTILSIRAQEEEVELSSDALDLLTKTGVETSLRYSSNLISVAQQIAMKRKNNTVEVEDVKRAYLLFLDSARSVKYVQENESQYIDDQGNVQISIAKSADPDAMDTTE

Experiments:
[1] = target: T1, Rvb1p (non-tagged) (Saccharomyces cerevisiae, UniProt Q03940 1-463); assay: pull-down
[2] = target: B6; assay: ITC
[3] = target: B6; assay: label-free quantitative mass spectrometry
[4] = target: Rvb2p (non-tagged) (Saccharomyces cerevisiae, UniProt Q12464 1-471); assay: pull-down
[5] = target: B4; assay: cross-linking
[6] = target: T1, Rvb1p (non-tagged); assay: cross-linking
[7] = target: ScR2TP complex (Rvb1p, Rvb2p, His-Pih1p, Tah1p) (Saccharomyces cerevisiae, UniProt Q03940 1-463; Q12464 1-471; P38768 1-344; P25638 1-111); assay: AUC
[8] = target: B6; assay: AUC
[9] = target: the molecule itself; assay: AUC

Binder: B4
- binding result [7]: binds

Binder: B6
- binding result [9]: binds

More lines, main results first:

- binding result [1]: binds
B1: DII-truncated Rvb2p (deleting residues 134–234) (natural protein, Saccharomyces cerevisiae, UniProt Q12464 1-471, looked up)
chain: MSIQTSDPNETSDLKSLSLIAAHSHITGLGLDENLQPRPTSEGMVGQLQARRAAGVILKMVQNGTIAGRAVLVAGPPSTGKTALAMGVSQSLGKDVPFTAIAGSEIFSLELSKTEALTQAFRKSIGIKIKEETVVHTVSLHEIDVINSRTQGFLALFTGDTGEIRSEVRDQINTKVAEWKEEGKAEIVPGVLFIDEVHMLDIECFSFINRALEDEFAPIVMMATNRGVSKTRGTNYKSPHGLPLDLLDRSIIITTKSYNEQEIKTILSIRAQEEEVELSSDALDLLTKTGVETSLRYSSNLISVAQQIAMKRKNNTVEVEDVKRAYLLFLDSARSVKYVQENESQYIDDQGNVQISIAKSADPDAMDTTE

- KD of the first of two serial sites (KD^1), apparent [2]: 155 nM
- KD of the second of two serial sites (KD^2), apparent [2]: 1.2 µM
- binding result [4]: binds
B2: Pih1p-Tah1p complex (His-tagged Pih1p, non-tagged Tah1p) (complex, Saccharomyces cerevisiae)
chain 1: MADFLLRPIKQRHRNEDKYVSVDAADGSVSKIEPIADFVIKTKLLSANGPEKLQDGRKVFINVCHSPLVPKPEVDFNARIVFPLIIQNEWEIPIITSCYRMDHDKKGQECYVWDCCINSDCSRWICDDIQLREILVEWCLESCEIRDSVVLCRDRIAFPKMKKKGAELPALEVLNDELHQDYKAKMHKIIEEEAGDPMSILRGRNDDGDDNNDPDDGTLPPLFPIENKISGAKIEEIDKNEIAHRNLKQAPAPAPAPHEQQEDVPEYEVKMKRFKGAAYKLRILIENKAPNSKPDRFSPSYNFAENILYINGKLSIPLPRDIVVNAADIKIFHIRKERTLYIYI
chain 2: MSQFEKQKEQGNSLFKQGLYREAVHCYDQLITAQPQNPVGYSNKAMALIKLGEYTQAIQMCQQGLRYTSTAEHVAIRSKLQYRLELAQGAVGSVQIPVVEVDELPEGYDRS
- stoichiometry N [3]: 1.6 Pih1p per 3 Rvb1p and 3 Rvb2p and 0.5 Tah1p per 3 Rvb1p

- binding result [5]: binds
- binding result [6]: binds
B3: Pih1p (His-tagged) (natural protein, Saccharomyces cerevisiae, UniProt P38768 1-344, looked up)
chain: MADFLLRPIKQRHRNEDKYVSVDAADGSVSKIEPIADFVIKTKLLSANGPEKLQDGRKVFINVCHSPLVPKPEVDFNARIVFPLIIQNEWEIPIITSCYRMDHDKKGQECYVWDCCINSDCSRWICDDIQLREILVEWCLESCEIRDSVVLCRDRIAFPKMKKKGAELPALEVLNDELHQDYKAKMHKIIEEEAGDPMSILRGRNDDGDDNNDPDDGTLPPLFPIENKISGAKIEEIDKNEIAHRNLKQAPAPAPAPHEQQEDVPEYEVKMKRFKGAAYKLRILIENKAPNSKPDRFSPSYNFAENILYINGKLSIPLPRDIVVNAADIKIFHIRKERTLYIYI

- binding result [8]: binds
B5: Pih1p 1–284 fragment (domain or fragment, Saccharomyces cerevisiae, UniProt P38768 1-284, looked up)
chain: MADFLLRPIKQRHRNEDKYVSVDAADGSVSKIEPIADFVIKTKLLSANGPEKLQDGRKVFINVCHSPLVPKPEVDFNARIVFPLIIQNEWEIPIITSCYRMDHDKKGQECYVWDCCINSDCSRWICDDIQLREILVEWCLESCEIRDSVVLCRDRIAFPKMKKKGAELPALEVLNDELHQDYKAKMHKIIEEEAGDPMSILRGRNDDGDDNNDPDDGTLPPLFPIENKISGAKIEEIDKNEIAHRNLKQAPAPAPAPHEQQEDVPEYEVKMKRFKGAAYKLRIL
